For data set [1], the system named is MGLL. Briefly: Kinetic analysis: hydrolysis of Coumarin Arachidonate (C-A) by MGLL constructs. The note with it: estimated; limited by solubility of C-A; read-out: apparent KM for C-A. The format is biochemical, human. From the text: (§1) A small fluorescent substrate, 4-methyl coumarin butyrate (4MC-B) was used to compare the activity of the engineered mutants to the activity of wt-MGLL (hMGLL 1-303) (SEQ ID NO: 3). The catalytic efficiency (kcat/KM) for the hydrolysis of the 4MC-B was similar for wt-MGLL (hMGLL 1-303) (SEQ ID NO: 3) and all MGLL mutants tested (Table 2). A larger more aliphatic fluorescent substrate, Coumarin Arachidonate (C-A), structurally more closely related to the MGLL natural substrate, 2-AG, was used to compare the activity of wt-MGLL (hMGLL 1-303) (SEQ ID NO: 3) to TEV cleaved mut-MGLL (hMGLL 1-303 L169S, L176S) (SEQ ID NO: 5).
(§2) The Michaelis-Menten parameters for the hydrolysis of 4-methylcoumarin butyrate (4MC-B) and coumarin arachidonate (C-A) substrate were determined using 4-5 nM of MGLL in 20 mM Pipes pH 7 and 150 mM NaCl at 37° C. The change in fluorescence due to substrate hydrolysis was monitored using excitation/emission wavelengths of 335/440 in a Safire II instrument from Tecan. The hyperbolic rates versus substrate concentration curves for the hydrolysis of 4MC-B were fit to the Michaelis-Menten equation using Excel.
The apparent kcat/KM ratio for the hydrolysis of C-A was determined at [S]<<KM. […] The kcat/KM values reported are the average from independent values determined from five substrate concentrations ranging from 700 to 40 nM.

Data set [2] in a line: Size exclusion chromatography of MGLL purified in the absence of detergent (aggregation/monomer). The class given is physicochemical. How it is done:
A pilot purification of wt-MGLL (hMGLL 1-303) (SEQ ID NO: 3), performed in the complete absence of detergent, generated no protein (data not shown). A second purification of wt-MGLL (hMGLL 1-303) (SEQ ID NO: 3) was done with detergent in the lysis buffer only. Frozen cell pellets for wt-MGLL (hMGLL 1-303) (SEQ ID NO: 3) were thawed, resuspended, and lysed in Bugbuster® lysis buffer for 1 hour at 4° C. Bugbuster® lysis buffer is a proprietary lysis buffer from […] that contains detergent. The lysate was clarified by centrifugation at 40,000×g for 1 hr. No detergent was added at this point or during the rest of the purification. From this point forward, the purification protocol and buffers were the same as described below for mut-MGLL. An average of 2.2 mg of wt-MGLL (hMGLL 1-303) (SEQ ID NO: 3) per liter of cell culture was obtained.
Mutant MGLL (mut-MGLL) constructs were purified in the absence of detergent. Frozen cell pellets were thawed and resuspended in buffer A (50 mM Hepes buffer pH 7.5, 400 mM NaCl, 5% glycerol, 0.05% BME, 1× Complete EDTA-free protease inhibitor cocktail tablets (Roche)), dounce homogenized and mechanically lysed with a microfluidizer processor (Microfluidics). The extract was clarified by centrifugation at 40,000×g for 1 hr. The cleared lysate was loaded on a 1 ml His-Trap FF Crude column (GE-Healthcare) at 4° C. using the AktaXpress system. For larger preparations, a 5 ml His-Trap FF Crude column was used. The column was washed with 10-15 column volumes (CV) of buffer A containing 30 mM imidazole and mut-MGLL was eluted with 5 CV of 50 mM Hepes buffer pH 7.5, 400 mM NaCl, 5% glycerol, 0.05% BME, 400 mM imidazole. In most preparations, 30 mM imidazole was included in Buffer A from the beginning of the preparation to reduce non-specific binding on the His-Trap column. […] Fractions were analysed by SDS-PAGE. […] Purification yields were determined by Bradford assay using the protein assay kit from BioRad according to manufacturer's instruction with BSA as a standard (Bradford 1976).

In data set [3] the test system is MGLL. Briefly: Kinetic analysis: hydrolysis of 4-methyl coumarin butyrate (4MC-B) by MGLL constructs. The class given is biochemical, human. The note with it: substrate 4MC-B; 4-5 nM MGLL, 20 mM Pipes pH 7, 150 mM NaCl, 37° C.; average of 2 or 4 separate assays.
Text: as §1, §2

Data set [4] can be described thus: Thermofluor thermal stability (melting transition) of MGLL. To be noted: for Tm (midpoint of the melting transition): 0.05 mg/ml protein, 1,8-ANS. The class given is physicochemical. From the text:
The Thermofluor® assay is a powerful tool to screen for small molecule inhibitors interacting with a protein's active site or allosteric site. The assay detects small changes in the intrinsic melting temperature of proteins based on binding of ligands. Compounds that interact preferentially with the native form of the protein will increase the Tm, the temperature at which half of the protein is unfolded (Pantoliano et al. 2001). The technique monitors changes in the fluorescent intensity of dyes such as 1-anilinonaphthalene-8-sulfonic acid (1,8-ANS). The fluorescent dyes are quenched in aqueous environments but increase in fluorescence on binding to the hydrophobic core of denatured proteins.
Thermofluor® assays were conducted to characterize wt-MGLL (hMGLL 1-303) (SEQ ID NO: 3) and mut-MGLL (hMGLL 1-303 L169S, L176S) and evaluate if the MGLL mutants could be used for high-throughput screening using Thermofluor®. Three microliters of protein at a concentration of 0.05 mg/ml in 50 mM Pipes pH 7, 200 mM NaCl, 100 μM 1,8-ANS, and 0.001% Tween was added to pre-dispensed compound plates. Wells were overlaid with silicone oil (1 μL, Fluka, type DC 200) to prevent evaporation. Final compound concentrations varied from 150 to 0.15 μM. Assay plates were heated at a rate of 1° C./min for all experiments over a temperature range sufficient to measure protein unfolding. Fluorescence was measured by continuous illumination with UV light (Hamamatsu LC6) supplied via fiber optic and filtered through a custom band-pass filter (380-400 nm; >60D cutoff). Fluorescence emission was detected by measuring light intensity using a CCD camera (Sensys, Roper Scientific) filtered to detect emission at 500±25 nm, resulting in simultaneous and independent readings of all 384 wells. One or more images were collected at each temperature, and the sum of the pixel intensity in a given area of the assay plate was recorded vs temperature, and fit to standard equations to yield the Tm.
(DSF heats the sample and reads unfolding from a dye or from intrinsic fluorescence.)

A short description of data set [5]: Circular dichroism structural analysis. The format is physicochemical. To be noted: 5 μM protein, 10 mM cacodylic acid pH 7, 140 mM NaCl. How it is done:
Circular dichroism experiments were performed on a Circular Dichroism Spectrometer Model 202 from Aviv Instruments Inc. The CD scans of wt-MGLL (hMGLL 1-303) (SEQ ID NO: 3) and TEV cleaved mut-MGLL (hMGLL 1-303 L169S, L176S) (SEQ ID NO: 5) (5 μM protein in 10 mM cacodylic acid pH 7 and 140 mM NaCl) were measured from 200 to 260 nm. Temperature melts were monitored at 210 nm.
For orientation: Circular dichroism is widely used to follow secondary structure.

The mark [6] stands for this setting: size exclusion, purified in the absence of detergent.

With `CCCCC/C=C/C/C=C\C/C=C/C/C=C/CCCC(=O)Oc1ccc2ccc(=O)oc2c1` [C-A, Coumarin Arachidonate], the Km (usually the substrate concentration at which the rate is half of its maximum) in the data set on MGLL [1] was over 30 µM.

B1: wt-MGLL.1-303: wild-type human MGLL isoform 2 amino acids 1-303 with N-terminal His tag and TEV site, SEQ ID NO: 3 (protein)
chain: MVDHHHHHHENLYFQGMPEESSPRRTPQSIPYQDLPHLVNADGQYLFCRYWKPTGTPKALIFVSHGAGEHSGRYEELARMLMGLDLLVFAHDHVGHGQSEGERMVVSDFHVFVRDVLQHVDSMQKDYPGLPVFLLGHSMGGAIAILTAAERPGHFAGMVLISPLVLANPESATTFKVLAAKVLNLVLPNLSLGPIDSSVLSRNKTEVDIYNSDPLICRAGLKVCFGIQLLNAVSRVERALPKLTVPFLLLQGSADRLCDSKGAYLLMELAKSQDKTLKIYEGAYHVLHKELPEVTNSVFHEINMWVSQRTATAGTASPP
modifications: N-terminal His tag and TEV site; Human
Consider B1, for which the “aggregation by size exclusion chromatography (in words)” value in data set [2] (detergent in the lysis buffer only) is on record as “complete aggregation”. Also, the aggregation in data set [2] (setting [6]) worked out at 100%. Besides, in the data set on MGLL [3], the Kcat was 1.13 s⁻¹ and the Michaelis-Menten constant (Km) worked out at 162 µM. In data set [4], the “quality of the melting transition” value is “very poor transition” and the “Tm (midpoint of the melting transition)” value turned out to be 58 °C.

B2: mut-MGLL. 1-303, L169S, L176S: engineered human MGLL 1-303 with cap-domain mutations L169S, L176S; SEQ ID NO: 4, SEQ ID NO: 5 after TEV cleavage (protein)
chain: MVDHHHHHHENLYFQGMPEESSPRRTPQSIPYQDLPHLVNADGQYLFCRYWKPTGTPKALIFVSHGAGEHSGRYEELARMLMGLDLLVFAHDHVGHGQSEGERMVVSDFHVFVRDVLQHVDSMQKDYPGLPVFLLGHSMGGAIAILTAAERPGHFAGMVLISPLVLANPESATTFKVLAAKVLNSVLPNLSSGPIDSSVLSRNKTEVDIYNSDPLICRAGLKVCFGIQLLNAVSRVERALPKLTVPFLLLQGSADRLCDSKGAYLLMELAKSQDKTLKIYEGAYHVLHKELPEVTNSVFHEINMWVSQRTATAGTASPP
modifications: His tag and TEV site; SEQ ID 5 after TEV cleavage; Human
In data set [2] (setting [6]), B2 displayed a monomer of 90%. Moreover, in data set [5], the “CD scans 200 to 260 nm compared with wt-MGLL purified in the presence of detergent” value was “similar”. Also, in the data set on MGLL [3], the Kcat was found to be 0.8 s⁻¹ and the Km was 136 µM. Further, in data set [4], the “quality of the melting transition” value was “strong transition” and the “Tm (midpoint of the melting transition)” value was determined as 56.7 °C.
